Measured values: article PMC3938669, “Inhibition of Hepatitis C Virus Infection by DNA Aptamer against NS2 Protein”

B1: aptamer NS2-2 (ssDNA)
DNA: CAGGTACCACCTTCATGGGCGCGGAAGACGATGGTGTACTA
B2: aptamer NS2-3 (ssDNA)
DNA: ACGGGGCAGGATTGTCCCCGCGCCTGGTTGAAGGTAGTCGC
B3: aptamer NS2-1 (ssDNA)
DNA: CTGGATCGAAAAGTATCCACGTTTGTCTGAAAATAGTGGCC

Target: NS2 (recombinant) (Hepatitis C virus JFH1 (genotype 2a), UniProt Q99IB8 814-1030)
Assay: ELONA; binding retained with excess yeast tRNA; ELONA: biotin-aptamer on streptavidin plates, protein 30 min at 37 C; washes PBS, 1 mM MgCl2, 0.1% BSA, 0.05% Tween-20; pH not stated
Conditions: tags: N-terminal His (pET-28b), label: biotin

Sequence of NS2 (recombinant) (Q99IB8 814-1030): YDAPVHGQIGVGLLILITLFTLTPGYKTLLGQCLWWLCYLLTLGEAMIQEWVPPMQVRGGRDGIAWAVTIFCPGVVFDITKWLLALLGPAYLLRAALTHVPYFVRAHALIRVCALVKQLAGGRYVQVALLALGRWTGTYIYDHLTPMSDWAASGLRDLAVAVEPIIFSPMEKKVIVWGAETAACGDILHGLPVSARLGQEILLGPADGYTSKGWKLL

Binding result, binds:
B1, B2, B3
